How the values were obtained:
[1] = molecular target: PR20, extreme drug-resistant mutant of mature HIV-1 protease (HIV-1); assay: enzyme activity against protease concentration
[2] = molecular target: PR, mature HIV-1 protease containing the mutations Q7K, L33I, L63I, C67A, C95A (HIV-1); assay: differential scanning calorimetry
[3] = molecular target: ScPR, single-chain dimer of two PR monomers linked by a GGSSG sequence (HIV-1); assay: differential scanning calorimetry

Q: “PR20, extreme drug-resistant mutant of mature HIV-1 protease (enzyme)” was tested. Which Kd [1] did it give?
A: Its Kd is 29 nM.

Q: What does the source list for “RPB, substrate (CA/SP1) analogue inhibitor H-Arg-Val-Leu-(r)-Phe-Glu-Ala-Nle-NH2 (peptide)”?
A: ΔTm (I), Tm(+inhibitor)-Tm(−inhibitor) [2]: 9.2 °C; ΔTm (I), Tm(+inhibitor)-Tm(−inhibitor) [3]: 7.8 °C

From publication PMC3888107
